Data on 49 substances can be found in patent publication US10472401B2, “Peptides and combination of peptides for use in immunotherapy against ovarian cancer and other cancers” (immatics biotechnologies GmbH, priority 2015, dated 2019).

One experiment relates to CD8+ T cells. Put plainly: In vitro immunogenicity: priming of CD8+ T cells with aAPCs loaded with peptide/MHC and anti-CD28, multimer staining. In kind it is cell-based, human. The settings on record: HLA class I peptides, positive donors. The text has this:
In order to obtain information regarding the immunogenicity of the TUMAPs of the present invention, the inventors performed investigations using an in vitro T-cell priming assay based on repeated stimulations of CD8+ T cells with artificial antigen presenting cells (aAPCs) loaded with peptide/MHC complexes and anti-CD28 antibody.
In order to perform in vitro stimulations by artificial antigen presenting cells loaded with peptide-MHC complex (pMHC) and anti-CD28 antibody, the inventors first isolated CD8+ T cells from fresh HLA-A*02 leukopheresis products via positive selection using CD8 microbeads (Miltenyi Biotec, Bergisch-Gladbach, Germany) of healthy donors obtained from the University clinics Mannheim, Germany, after informed consent.
PBMCs and isolated CD8+ lymphocytes were incubated in T-cell medium (TCM) until use consisting of RPMI-Glutamax (Invitrogen, Karlsruhe, Germany) supplemented with 10% heat inactivated human AB serum (PAN-Biotech, Aidenbach, Germany), 100 U/ml Penicillin/100 μg/ml Streptomycin (Cambrex, Cologne, Germany), 1 mM sodium pyruvate (CC Pro, Oberdorla, Germany), 20 μg/ml Gentamycin (Cambrex). 2.5 ng/ml IL-7 (PromoCell, Heidelberg, Germany) and 10 U/ml IL-2 (Novartis Pharma, Nürnberg, Germany) were also added to the TCM at this step.
Generation of pMHC/anti-CD28 coated beads, T-cell stimulations and readout was performed in a highly defined in vitro system using four different pMHC molecules per stimulation condition and 8 different pMHC molecules per readout condition.
The purified co-stimulatory mouse IgG2a anti human CD28 Ab 9.3 (Jung et al., 1987) was chemically biotinylated using Sulfo-N-hydroxysuccinimidobiotin as recommended by the manufacturer (Perbio, Bonn, Germany). Beads used were 5.6 μm diameter streptavidin coated polystyrene particles (Bangs Laboratories, Illinois, USA).
pMHC used for positive and negative control stimulations were A*0201/MLA-001 (peptide […] (SEQ ID NO. 664) from modified Melan-A/MART-1) and A*0201/DDX5-001 ([…] from DDX5, SEQ ID NO. 665), respectively.
800.000 beads/200 μl were coated in 96-well plates in the presence of 4×12.5 ng different biotin-pMHC, washed and 600 ng biotin anti-CD28 were added subsequently in a volume of 200 μl. Stimulations were initiated in 96-well plates by co-incubating […] CD8+ T cells with 2×10^5 washed coated beads in 200 μl TCM supplemented with 5 ng/ml IL-12 (PromoCell) for 3 days at 37° C. Half of the medium was then exchanged by fresh TCM supplemented with 80 U/ml IL-2 and incubating was continued for 4 days at 37° C. This stimulation cycle was performed for a total of three times. For the pMHC multimer readout using 8 different pMHC molecules per condition, a two-dimensional combinatorial coding approach was used as previously described (Andersen et al., 2012) with minor modifications encompassing coupling to 5 different fluorochromes. Finally, multimeric analyses were performed by staining the cells with Live/dead near IR dye (Invitrogen, Karlsruhe, Germany), CD8-FITC antibody clone SK1 (BD, Heidelberg, Germany) and fluorescent pMHC multimers. For analysis, a BD LSRII SORP cytometer equipped with appropriate lasers and filters was used. Peptide specific cells were calculated as percentage of total CD8+ cells. Evaluation of multimeric analysis was done using the FlowJo software (Tree Star, Oregon, USA). In vitro priming of specific multimer+ CD8+ lymphocytes was detected by comparing to negative control stimulations.
Exemplary flow cytometry results after TUMAP-specific multimer staining for two peptides of the invention are shown in FIG. 3 together with corresponding negative controls.
Consider “652 (TLWYRAPEV; listed as Homo sapiens) [compound 652]”, for which the donors entry is recorded as “++++ (> = 70% = ++++)”.

The same experiment, now with this note: HLA class I peptides, positive wells.
For “659 (ILFPDIIARA; listed as Homo sapiens) [compound 659]”, the wells result is “+ (<20% = +)”. “662 (KIQEILTQV; listed as Homo sapiens) [compound 662]”: the wells result is recorded as “+ (<20% = +)”. Same read-out and setting: to “663 (KIQEMQHFL; listed as Homo sapiens) [compound 663]” belongs “+ (<20% = +)”.

Still in this experiment, the particulars now being: HLA-A*02 restricted peptides, percentage of positive wells (among evaluable).
In the case of “2 (SLLEADPFL; listed as Homo sapiens) [compound 2]”, the “Wells positive [%]” value was “″+″ (<20% = +)”. Take “3 (SLASKLTTL; listed as Homo sapiens) [compound 3]”: the “Wells positive [%]” value is recorded as “″+″ (<20% = +)”. In the case of “8 (FTLGNVVGMYL; listed as Homo sapiens) [compound 8]”, the “Wells positive [%]” value is “″+″ (<20% = +)”. For the substance “11 (KIFEMLEGV; listed as Homo sapiens) [compound 11]”, the “Wells positive [%]” value is “″+″ (<20% = +)”. Consider “36 (YVLEDLEVTV; listed as Homo sapiens) [compound 36]”, for which the “Wells positive [%]” value is “″+″ (<20% = +)”. Same read-out and setting: to “38 (FLLEDDIHVS; listed as Homo sapiens) [compound 38]” belongs “″+″ (<20% = +)”.

In a further experiment the target is HLA-A*02:01 (Homo sapiens, UniProt P04439, D140Y/D185E/D98H/E176V/E277Q/G131W/G231S/I119V/I121R/I166T/I218V/L300P/L318F/N151K/N90K/P208A/P217A/Q86G/Q94H/R138H/R169H/T345S). Put plainly: MHC binding assay (UV-ligand exchange, ELISA of stabilized MHC complexes). The settings on record: MHC class I binding score; binding to HLA-A*02:01 ranged by peptide exchange yield (UV-ligand exchange, ELISA). The method in brief: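 Binding scored as exchange yield, detected via β2m of stabilized complexes in an HRP/TMB ELISA read at 450 nm after streptavidin capture of 100-fold diluted monomers for 1 h at 37 °C. Complexes came from UV irradiation cleaving a photolabile peptide, exchanged for the candidate.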
On the technique in general: ELISA stands for enzyme-linked immunosorbent assay.
As to “2 (SLLEADPFL; listed as Homo sapiens) [compound 2]”, the Peptide exchange result is “″+++″ (≥50% = +++)”.

Regarding “3 (SLASKLTTL; listed as Homo sapiens) [compound 3]”, the Peptide exchange result is “″++++″ (≥75% = ++++)”. For “8 (FTLGNVVGMYL; listed as Homo sapiens) [compound 8]”, the Peptide exchange result was “″++++″ (≥75% = ++++)”. Same read-out and setting: to “11 (KIFEMLEGV; listed as Homo sapiens) [compound 11]” belongs “″+++″ (≥50% = +++)”; to “36 (YVLEDLEVTV; listed as Homo sapiens) [compound 36]”, “″++″ (≥20% = ++)”. Take “38 (FLLEDDIHVS; listed as Homo sapiens) [compound 38]”: the Peptide exchange result is “″+++″ (≥50% = +++)”.

For “585 (ALWDLAADKQTL; listed as Homo sapiens) [compound 585]”, the Peptide exchange result was “″++++″ (≥75% = ++++)”.

Turning to “586 (KLKPGDLVGV; listed as Homo sapiens) [compound 586]”, the Peptide exchange result is given as “″+++″ (≥50% = +++)”. Still for that read-out and setting: to “587 (VMNDRLYAI; listed as Homo sapiens) [compound 587]” belongs “″+++″ (≥50% = +++)”; to “588 (SLLPLSHLV; listed as Homo sapiens) [compound 588]”, “″+++″ (≥50% = +++)”; to “589 (KLYPQLPAEI; listed as Homo sapiens) [compound 589]”, “″+++″ (≥50% = +++)”. Regarding “590 (SLIEKLWQT; listed as Homo sapiens) [compound 590]”, the Peptide exchange entry is listed as “″++″ (≥20% = ++)”. The same measure, in the same setting: with “591 (SMAELDIKL; listed as Homo sapiens) [compound 591]” the entry was “″+++″ (≥50% = +++)”; with “592 (RLLSAAENFL; listed as Homo sapiens) [compound 592]”, “″+++″ (≥50% = +++)”.

On to “593 (GLPRFGIEMV; listed as Homo sapiens) [compound 593]”, for which the Peptide exchange entry is listed as “″+++″ (≥50% = +++)”. In the case of “594 (IMLKGDNITL; listed as Homo sapiens) [compound 594]”, the Peptide exchange entry is on record as “″+++″ (≥50% = +++)”. For “595 (VLLSIYPRV; listed as Homo sapiens) [compound 595]”, the Peptide exchange result is recorded as “″+++″ (≥50% = +++)”. The same measure, in the same setting: to “596 (ALLDQTKTLAESAL; listed as Homo sapiens) [compound 596]” belongs “″+++″ (≥50% = +++)”; to “597 (KLLEGQVIQL; listed as Homo sapiens) [compound 597]”, “″+++″ (≥50% = +++)”.

On to “598 (FLFPHSVLV; listed as Homo sapiens) [compound 598]”, for which the Peptide exchange result is listed as “″+++″ (≥50% = +++)”.

As to “599 (YLLNDASLISV; listed as Homo sapiens) [compound 599]”, the Peptide exchange result is on record as “″+++″ (≥50% = +++)”. “600 (ALAAPDIVPAL; listed as Homo sapiens) [compound 600]”: the Peptide exchange entry is “″+++″ (≥50% = +++)”. “601 (SAFPFPVTV; listed as Homo sapiens) [compound 601]”: the Peptide exchange entry is recorded as “″+++″ (≥50% = +++)”. On the same count and under the same terms, to “602 (YLLEQIKLIEV; listed as Homo sapiens) [compound 602]” belongs “″++++″ (≥75% = ++++)”; to “604 (SILDRDDIFV; listed as Homo sapiens) [compound 604]”, “″+++″ (≥50% = +++)”; to “605 (KLYEAVPQL; listed as Homo sapiens) [compound 605]”, “″+++″ (≥50% = +++)”.

Regarding “606 (ALWETEVYI; listed as Homo sapiens) [compound 606]”, the Peptide exchange entry was “″+++″ (≥50% = +++)”. As to “607 (RLYSGISGLEL; listed as Homo sapiens) [compound 607]”, the Peptide exchange entry is reported as “″+++″ (≥50% = +++)”.

For the substance “608 (SLLSVSHAL; listed as Homo sapiens) [compound 608]”, the Peptide exchange result is reported as “″+++″ (≥50% = +++)”. Still for that read-out and setting: to “609 (ALWKQLLEL; listed as Homo sapiens) [compound 609]” belongs “″+++″ (≥50% = +++)”; to “610 (LLAPTPYIIGV; listed as Homo sapiens) [compound 610]”, “″+++″ (≥50% = +++)”; to “611 (YLLDDGTLVV; listed as Homo sapiens) [compound 611]”, “″++++″ (≥75% = ++++)”. The same measure, in the same setting: to “612 (YLYNEGLSV; listed as Homo sapiens) [compound 612]” belongs “″+++″ (≥50% = +++)”. Consider “613 (RLLPPGAVVAV; listed as Homo sapiens) [compound 613]”, for which the Peptide exchange result is recorded as “″+++″ (≥50% = +++)”.

Consider “614 (LLLPDQPPYHL; listed as Homo sapiens) [compound 614]”, for which the Peptide exchange entry is reported as “″+++″ (≥50% = +++)”. For the substance “615 (VLPPDTDPA; listed as Homo sapiens) [compound 615]”, the Peptide exchange result is recorded as “″++″ (≥20% = ++)”.

With “616 (VLIDEVESL; listed as Homo sapiens) [compound 616]”, the Peptide exchange result is “″+++″ (≥50% = +++)”. Still for that read-out and setting: with “617 (ALMYESEKVGV; listed as Homo sapiens) [compound 617]” the entry was “″+++″ (≥50% = +++)”. On the same count and under the same terms, to “618 (VLFDSESIGIYV; listed as Homo sapiens) [compound 618]” belongs “″+++″ (≥50% = +++)”. On the same count and under the same terms, to “619 (ALQDRVPLA; listed as Homo sapiens) [compound 619]” belongs “″+++″ (≥50% = +++)”; to “620 (KLLNKIYEA; listed as Homo sapiens) [compound 620]”, “″++++″ (≥75% = ++++)”; to “621 (VLMDRLPSLL; listed as Homo sapiens) [compound 621]”, “″++++″ (≥75% = ++++)”. With “622 (RLLGEEVVRVLQA; listed as Homo sapiens) [compound 622]”, the Peptide exchange result was “″+++″ (≥50% = +++)”. The same measure, in the same setting: to “623 (YLVEDIQHI; listed as Homo sapiens) [compound 623]” belongs “″+++″ (≥50% = +++)”; to “635 (SLDSTLHAV; listed as Homo sapiens) [compound 635]”, “″+++″ (≥50% = +++)”.
